Values quoted from earlier work as cited in publication PMC7039207.
pKd: −log10 of the molar value.

Target: Vinculin tail D5 (Gallus gallus) (UniProt P12003)

pKd: 7.00
Substance: Vinculin head D1-D4 (from UniProt P12003)
